Experimental data taken from patent publication US7291492.

Assays:
[1] = target: [3H]acetyl-labelled peptide corresponding to the N-Terminus of Histone H3, P68431
[2] = target: [3H]acetyl-labelled peptide corresponding to the N-Terminus of histone H4, P62805

B1: N-Terminus flag tagged HDAC9 (protein)
chain: MHSMISSVDVKSEVPVGLEPISPLDLRTDLRMMMPVVDPVVREKQLQQELLLIQQQQQIQKQLLIAEFQKQHENLTRQHQAQLQEHIKLQQELLAIKQQQELLEKEQKLEQQRQEQEVERHRREQQLPPLRGKDRGRERAVASTEVKQKLQEFLLSKSATKDTPTNGKNHSVSRHPKLWYTAAHHTSLDQSSPPLSGTSPSYKYTLPGAQDAKDDFPLRKTASEPNLKVRSRLKQKVAERRSSPLLRRKDGNVVTSFKKRMFEVTESSVSSSSPGSGPSSPNNGPTGSVTENETSVLPPTPHAEQMVSQQRILIHEDSMNLLSLYTSPSLPNITLGLPAVPSQLNASNSLKEKQKCETQTLRQGVPLPGQYGGSIPASSSHPHVTLEGKPPNSSHQALLQHLLLKEQMRQQKLLVAGGVPLHPQSPLATKERISPGIRGTHKLPRHRPLNRTQSAPLPQSTLAQLVIQQQHQQFLEKQKQYQQQIHMNKLLSKSIEQLKQPGSHLEEAEEELQGDQAMQEDRAPSSGNSTRSDSSACVDDTLGQVGAVKVKEEPVDSDEDAQIQEMESGEQAAFMQQPFLEPTHTRALSVRQAPLAAVGMDGLEKHRLVSRTHSSPAASVLPHPAMDRPLQPGSATGIAYDPLMLKHQCVCGNSTTHPEHAGRIQSIWSRLQETGLLNKCERIQGRKASLEEIQLVHSEHHSLLYGTNPLDGQKLDPRILLGDDSQKFFSSLPCGGLGVDSDTIWNELRSSGAARMAVGCVIELASKVASGELKNGFAVVRPPGHHAEESTAMGFCFFNSVAITAKYLRDQLNISKILIVDLDVHHGNGTQQAFYADPSILYISLHRYDEGNFFPGSGAPNEVGTGLGEGYNINIAWTGGLDPPMGDVEYLEAFRTIVKPVAKEFDPDMVLVSAGFDALEGHTPPLGGYKVTAKCFGHLTKQLMTLADGRVVLALEGGHDLTAICDASEACVNALLGNELEPLAEDILHQSPNMNAVISLQKIIEIQSKYWKSVRMVAVPRGCALAGAQLQEETETVSALASLTVDVEQPFAQEDSRTAGEPMEEEPAL
- histone deacetylase activity (release of [3H]acetate from the peptide) [1]: Higher activities of HDAC9 have been detected towards peptide substrates derived from histone H3 than from histone H4
- histone deacetylase activity (release of [3H]acetate from the peptide), relative to HDAC1 [2]: HDAC9 contains about 25% activity of HDAC1
- histone deacetylase activity (release of [3H]acetate from the peptide), relative to HDACs 4 and 5 [2]: 50% activity of HDACs 4 and 5
